The source of these data is PMC11020753, “Contribution of amino acids in the active site of dipeptidyl peptidase 4 to the catalytic action of the enzyme” (PLOS ONE, 2024).

Residues, ends and D or L forms follow the SMILES beside them. *: point of attachment. AMC = Cc1cc(=O)oc2cc(N*)ccc12

By Km is commonly meant the concentration of substrate that gives half-maximal velocity. Broadly, the kcat is the number of substrate molecules converted per active site and unit of time at saturation.

Format in all cases: biochemical
Assay [1] deals with T1, DP4 variant E206A (Homo sapiens, UniProt P27487, E206A).
T1 construct: His(6)-37-766 hDP4 containing fractions were concentrated to 1 ml as described above; His6 (N); made in house; host or cells: Pichia pastoris X-33, vector pPICZα C (secreted)
In words: Cleavage of peptide hormones by MALDI-TOF mass spectrometry. Conditions: T = 37 °C, 100 mM Tris-HCl, pH 7.6, substrate concentration 25 μM. How it is done: (§1) Enzyme concentration 5 x 10^−9 M, substrate concentration 25 μM, reaction time 1–3 hours, depending on the respective hydrolysis rate. Reactions were stopped by addition of 1 volume DHAP/DAHC-matrix, dissolved in 50% (v/v) acetonitrile, after certain time points. The matrix-sample mixture was placed in a vacuum, which caused the proteins to crystallize together with the matrix. Using the mass spectrometer "LD-TOF System G2025" from Hewlett Packard, the relative amount of substrate and respective product peaks in the samples could be determined. Relative hydrolysis rates were depicted by plotting relative substrate concentration against time.

In assay [2] the target is T2, DP4 variant N710A (Homo sapiens, UniProt P27487, N710A).
T2 construct: His(6)-37-766 hDP4 containing fractions were concentrated to 1 ml; made in house; host or cells: Pichia pastoris X-33 (vector pPICZα C, secreted)
The assay is described as above. Conditions: T = 37 °C, 100 mM Tris-HCl, pH 7.6, substrate concentration 25 μM. How it is done: as §1

The target of assay [3] is T3, DP4 variant E205A (Homo sapiens, UniProt P27487, E205A).
T3 construct: His(6)-37-766 hDP4 containing fractions were concentrated to 1 ml as described above; His6 (N); made in house; host or cells: Pichia pastoris X-33, vector pPICZα C (secreted)
The assay is described as above. Conditions: T = 37 °C, 100 mM Tris-HCl, pH 7.6, substrate concentration 25 μM. How it is done:
as §1

Assay [4] has as its target T4, DP4 variant R125A (Homo sapiens, UniProt P27487, R125A).
T4 construct: His(6)-37-766 hDP4 containing fractions were concentrated to 1 ml; made in house; host or cells: Pichia pastoris X-33 (vector pPICZα C, secreted)
The description is as above. Conditions: T = 37 °C, 100 mM Tris-HCl, pH 7.6, substrate concentration 25 μM. How it is done: as §1

In assay [5] the target is T5, DP4 variant N710Q (Homo sapiens, UniProt P27487, N710Q).
T5 construct: His(6)-37-766 hDP4 containing fractions were concentrated to 1 ml; made in house; host or cells: Pichia pastoris X-33 (vector pPICZα C, secreted)
Described as above. Conditions: T = 37 °C, 100 mM Tris-HCl, pH 7.6, substrate concentration 25 μM. How it is done: as §1

Assay [6] addresses T6, DP4 variant N710D (Homo sapiens, UniProt P27487, N710D).
T6 construct: His(6)-37-766 hDP4 containing fractions were concentrated to 1 ml; made in house; host or cells: Pichia pastoris X-33 (vector pPICZα C, secreted)
The description is as above. Conditions: T = 37 °C, 100 mM Tris-HCl, pH 7.6, substrate concentration 25 μM. As for the experimental part: as §1

The target in assay [7] is T7, wild type DP4 (Homo sapiens, UniProt P27487).
T7 construct: His(6)-37-766 hDP4 containing fractions were concentrated to 1 ml; made in house; host or cells: Pichia pastoris X-33 (vector pPICZα C, secreted)
Described as above. Details: key: +++: hydrolysis is comparable with the data obtained from the wild type enzyme; -: hydrolysis below 0,01% of the wild type enzyme. Conditions: T = 37 °C, 100 mM Tris-HCl, pH 7.6, substrate concentration 25 μM. How it is done: as §1

Assay [8] addresses T8, DP4 variant R125K (Homo sapiens, UniProt P27487, R125K).
T8 construct: His(6)-37-766 hDP4 containing fractions were concentrated to 1 ml; made in house; host or cells: Pichia pastoris X-33 (vector pPICZα C, secreted)
Described as above. Details: key: +++: hydrolysis is comparable with the data obtained from the wild type enzyme; -: hydrolysis below 0,01% of the wild type enzyme. Conditions: T = 37 °C, 100 mM Tris-HCl, pH 7.6, substrate concentration 25 μM. How it is done: as §1

Assay [9] addresses T5, DP4 variant N710Q. The experiment in a line: Hydrolysis of dipeptide-AMC substrates (fluorescence). Conditions: N710Q; substrate hydrolysis; 100 mM HEPES-buffer (pH 7.6), T = 30 °C.
Protocol: The reactions were performed in 100 mM HEPES buffer, pH 7.6 at 30°C in a total assay volume of 270 μl by using 96-well plates. […] Fluorescence was detected with a [sequence]luor Plus (TECAN) at an excitation wavelength of 380 nm and an emission wavelength of 465 nm.
Assay [10] addresses T6, DP4 variant N710D. The assay is described as above. Conditions: substrate hydrolysis, 100 mM HEPES-buffer (pH 7.6), T = 30 °C.
Assay [11] concerns the target T7, wild type DP4. The description is as above. Conditions: substrate hydrolysis, 100 mM HEPES-buffer (pH 7.6), T = 30 °C. As for the experimental part:
(§2) The reactions were performed in 100 mM HEPES buffer, pH 7.6 at 30°C in a total assay volume of 270 μl by using 96-well plates. […] Fluorescence was detected with a […]luor Plus (TECAN) at an excitation wavelength of 380 nm and an emission wavelength of 465 nm.

Assay [12] deals with T1, DP4 variant E206A. Described as above. Conditions: substrate hydrolysis, 100 mM HEPES-buffer (pH 7.6), T = 30 °C. How it is done:
as §2

In assay [13] the target is T2, DP4 variant N710A. The assay is described as above. Conditions: N710A; substrate hydrolysis; 100 mM HEPES-buffer (pH 7.6), T = 30 °C. As for the experimental part: as §2
The target of assay [14] is T3, DP4 variant E205A. Described as above. Conditions: substrate hydrolysis, 100 mM HEPES-buffer (pH 7.6), T = 30 °C. How it is done:
as §2

Assay [15] addresses T4, DP4 variant R125A. The assay is described as above. Conditions: substrate hydrolysis, 100 mM HEPES-buffer (pH 7.6), T = 30 °C. As for the experimental part: as §2
Assay [16] concerns the target T8, DP4 variant R125K. The assay is described as above. Conditions: substrate hydrolysis, 100 mM HEPES-buffer (pH 7.6), T = 30 °C. As for the experimental part: as §2
Assay [17] deals with T7, wild type DP4. The experiment in a line: Km and kcat determination by LC/MS-MS assay. Conditions: hydrolysis of peptide hormone, 10 mM Tris-buffer (pH 7.6), T = 30 °C. As for the experimental part:
(§3) Therefore, DP4 was incubated with different substrate concentrations in 10 mM Tris-buffer pH 7.6 at 30°C. Enzyme concentrations and incubation times were chosen to obtain a linear product formation. After selected time points, samples were taken and the reaction stopped by addition of 19 volumes 0,1% HCOOH. Cleavage products were quantified in the respective samples by LC/MS-MS assay.

In assay [18] the target is T4, DP4 variant R125A. The experiment in a line: Km and kcat determination by LC/MS-MS assay. Conditions: hydrolysis of peptide hormone, 10 mM Tris-buffer (pH 7.6), T = 30 °C. How it is done:
as §3

In assay [19] the target is T8, DP4 variant R125K. The experiment in a line: Km and kcat determination by LC/MS-MS assay. Conditions: hydrolysis of peptide hormone, 10 mM Tris-buffer (pH 7.6), T = 30 °C. How it is done: as §3

T4 sequence (P27487 37-766 R125A): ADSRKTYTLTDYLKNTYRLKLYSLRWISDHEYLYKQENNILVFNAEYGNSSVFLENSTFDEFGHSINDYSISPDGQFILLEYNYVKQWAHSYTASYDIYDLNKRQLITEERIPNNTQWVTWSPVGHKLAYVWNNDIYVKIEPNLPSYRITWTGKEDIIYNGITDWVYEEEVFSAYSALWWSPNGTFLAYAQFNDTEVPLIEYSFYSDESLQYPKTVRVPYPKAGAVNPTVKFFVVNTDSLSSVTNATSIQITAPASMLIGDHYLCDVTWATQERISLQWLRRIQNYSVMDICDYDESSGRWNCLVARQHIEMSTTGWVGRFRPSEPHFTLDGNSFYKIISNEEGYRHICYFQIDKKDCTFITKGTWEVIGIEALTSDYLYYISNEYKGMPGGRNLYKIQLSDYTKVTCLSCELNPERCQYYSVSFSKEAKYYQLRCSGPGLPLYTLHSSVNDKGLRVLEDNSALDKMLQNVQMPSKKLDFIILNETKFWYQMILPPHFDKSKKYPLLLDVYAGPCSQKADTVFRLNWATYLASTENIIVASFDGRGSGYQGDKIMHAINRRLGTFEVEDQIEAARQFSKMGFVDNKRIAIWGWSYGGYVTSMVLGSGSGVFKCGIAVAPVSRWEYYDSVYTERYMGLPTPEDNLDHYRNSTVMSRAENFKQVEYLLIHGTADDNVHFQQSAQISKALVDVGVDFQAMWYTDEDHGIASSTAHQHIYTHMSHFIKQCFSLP
T8 sequence (P27487 37-766 R125K): as the sequence (P27487 37-766 R125A) above, with A89K counted along it
T5 sequence (P27487 37-766 N710Q): as the sequence (P27487 37-766 R125A) above, with A89R, N674Q counted along it
T7 sequence (P27487 37-766): as the sequence (P27487 37-766 R125A) above, with A89R counted along it
T6 sequence (P27487 37-766 N710D): as the sequence (P27487 37-766 R125A) above, with A89R, N674D counted along it
T3 sequence (P27487 37-766 E205A): as the sequence (P27487 37-766 R125A) above, with A89R, E169A counted along it
T2 sequence (P27487 37-766 N710A): as the sequence (P27487 37-766 R125A) above, with A89R, N674A counted along it
T1 sequence (P27487 37-766 E206A): as the sequence (P27487 37-766 R125A) above, with A89R, E170A counted along it

As for “PACAP38: physiological DP4 substrate, peptide hormone, serine in P1 position (H2N-H-S-Q…)”, the “Hydrolysis of peptide hormone in comparison to the DP4 wild type enzyme” value (from here on “Hydrolysis of peptide hormone”) with DP4 variant E206A [1], with DP4 variant N710A [2], with DP4 variant E205A [3], with DP4 variant R125A [4], with DP4 variant N710Q [5] and with DP4 variant N710D [6] was “- (hydrolysis below 0,01% of the wild type enzyme)” throughout. Besides, the “Hydrolysis of peptide hormone” value with wild type DP4 [7] is listed as “+++”; in the assay with DP4 variant R125K [8] it was “- (hydrolysis below 0,01% of the wild type enzyme)”.
Turning to `Cc1cc(=O)oc2cc(NC(=O)[C@H](C)NC(=O)[C@H](C)N)ccc12` [Ala-Ala-AMC] (H-Ala-Ala-{AMC}), the Km result was “No hydrolysis at concentrations < 10 mM” at DP4 variant N710Q [9]; 1.8 mM at DP4 variant N710D [10]; 550 µM on wild type DP4 [11]; “No hydrolysis at concentrations < 10 mM” at DP4 variant E206A [12]; 410 µM on DP4 variant N710A [13]; 4.7 mM on DP4 variant E205A [14]. For the same compound, the Km at DP4 variant R125A [15] was determined as 710 µM; on DP4 variant R125K [16] it was 1.5 mM. The catalytic constant (kcat) result at DP4 variant N710Q [9] is “No hydrolysis at concentrations < 10 mM”; at DP4 variant N710D [10], 0.05 ± 0.003 s⁻¹; on wild type DP4 [11], 5.7 ± 0.18 s⁻¹; at DP4 variant E206A [12], “No hydrolysis at concentrations < 10 mM”; at DP4 variant N710A [13], “(9.4 ± 0.06) · 10^−3 s^−1”; at DP4 variant E205A [14] it was 0.15 ± 0.015 s⁻¹. The figures for the turnover number (kcat) at DP4 variant R125A [15] and at DP4 variant R125K [16] were 2.3 ± 0.08 s⁻¹ and 2.6 ± 0.09 s⁻¹, respectively.
As to “glucose-dependent insulinotropic peptide [GIP]”, the “Hydrolysis of peptide hormone” value with DP4 variant E206A [1] is given as “- (hydrolysis below 0,01% of the wild type enzyme)”; with DP4 variant N710A [2] it was “- (hydrolysis below 0,01% of the wild type enzyme)”; with DP4 variant E205A [3] it was “- (hydrolysis below 0,01% of the wild type enzyme)”; with DP4 variant N710Q [5], “- (hydrolysis below 0,01% of the wild type enzyme)”; in the assay with DP4 variant N710D [6] it was “- (hydrolysis below 0,01% of the wild type enzyme)”; in the assay with wild type DP4 [7], “+++”. The turnover number (kcat) with wild type DP4 [17] is 3.9 ± 0.2 s⁻¹; with DP4 variant R125A [18], 0.16 ± 0.08 s⁻¹; in the assay with DP4 variant R125K [19], 0.88 ± 0.08 s⁻¹.
